Data as given in US20240010747A1, “ANTI-MRP4 (ENCODED BY ABCC4 GENE) ANTIBODIES AND USES THEREOF” (Kenjockety Biotechnology, Inc., priority 2020, published 2024).
Numbering of substitutions follows the chain as printed.

B1: C4.970: anti-ABCC4 antibody raised in rats; VH SEQ ID NO: 10, VL SEQ ID NO: 131 (antibody, V domains shown)
VH: EVQLVESGPGLVQPSQTLSLTCTVAGFSLTSYNVHWVRQPPGKGLEWMGVIWNTGDTRYDSALKSRLSISKDTSKSQVFLNMNSLQTEDTATYYCARDDNVYYGMHAMDAWGQGASVTVSS
VL: DIKMIQSPSSLSASLGERVTISCRASENINNYLSWYQKKEDGSVKLLIYHTSRLQPGAPSRFSGSGSGKDYSLTISGLDSEDIATYYCQQGYTPPTFGAGTKLELK
B2: C4.1071: anti-ABCC4 antibody raised in rats; VH SEQ ID NO: 23, VL SEQ ID NO: 145 (antibody, V domains shown)
VH: EVQWKESGPGLVQPSQTLSLTCTVSGFSLTSYGVSWVRQPPGKGLEWIGAIWSGGGTDYNSALKSRLSISRDTSKSQVLLKMNSLQTEDTAMYFCAGNHYFDYWGQGTMVTVSS
VL: AIQVTQSPNSLSASLGDRVTLTCRASQDINNKMAWYQQKPGEVPQLLIYSASTLQSGTPSRFSGSGSGTDFSFTISHLQSEDFATYYCLQGYSLYTFGAGTKLELKRADAAP
B3: C4.994: anti-ABCC4 antibody raised in rats; VH SEQ ID NO: 17, VL SEQ ID NO: 137 (antibody, V domains shown)
VH: QIQLVQSGPELKKPGESVKISCKASGYTFTDYAIHWVTQAPGKGLKWMGWISTYTGKTTYTDDFKGRFVFSLDASASTANLQINNLKNEDTAAYFCARGGLQWFDYWGQGTLVTVSS
VL: EILLTQSPTAMAASPGEKVTITCRASFRVSYMHWYQQKPGASPKPWIYDTSKLASGVPTRFSGSGSGTSYSFTISSMETEDTATYYCQQWTSNSRTFGGGTKLVLK
B4: C4.1047A: anti-ABCC4 antibody raised in rats; VH SEQ ID NO: 20, VL SEQ ID NO: 140 (antibody, V domains shown)
VH: EVQLMESGPGLVQPSQTLSLTCTVSGLSLISNNINWVRQPPGKGLEWIGAISGGGSAFYNSALKSRLSFSRDTSKSQVFLKMNSLQTEDTAIYFCARGGSEDPDYFDYWGQGVMVTVSS
VL: ETVMTQTPSSLAVSAGETVTINCRSSQSLLYSGNQKNYLAWYQQKPGQSPKLLIYWSSTRQYGVPDRFIGSGSGTDFTLTISSVQAEDLAIYYCQQYYDTPLTFGSGTKLELK
B5: C4.1052: anti-ABCC4 antibody raised in rats; VH SEQ ID NO: 20, VL SEQ ID NO: 141 (antibody, V domains shown)
VH: B4 VH
VL: B4 VL with E1D, T2I, T7S, R24K, Y62S, I69M, L112I
B6: C4.1145: anti-ABCC4 antibody raised in rats; VH SEQ ID NO: 32, VL SEQ ID NO: 151 (antibody, V domains shown)
VH: EVKLVESGGGLVQPGRSLKLSCAASGFTFSNYDMAWVRQAPTKGLEWVASIIPSGGTSYYRDSVKGRFTVSRDNAKSTLYLQMDSLRSEDTATYYCARLTTSHYYVMDAWGQGASVTVSS
VL: DIWMTQSPTSMSISVGDRVTMNCKASQNVGSNVDWYQQKTGQSPKLLIYKASNRYTGVPDRFTGSGSGTDFTFTISNMQAEDLAVYYCMQSNSYPWTFGGGTKLELK
B7: C4.1138: anti-ABCC4 antibody raised in rats; VH SEQ ID NO: 29, VL SEQ ID NO: 149 (antibody, V domains shown)
VH: EVQLKESGPGLVKPSETLSLTCTVSGFSLTSYHVSWVRQPPGKGLEWMGVIWGDGNTAYNSALKSRLSINRDTSKSQVFLKMNSLQTEDTATYYCARHPYYSIPYWGQGASVTVSS
VL: DIVLTQSPTTMAAFPGEKVTITCRASSSVSYMYWYQQKSGASPKSWIYETSKLASGVPDRFSGSGSGTSYSFTISSMETEDAATYYCHQWSSIPLTFGSGTKLEIK
B8: C4.1078: anti-ABCC4 antibody raised in rats; VH SEQ ID NO: 26, VL SEQ ID NO: 147 (antibody, V domains shown)
VH: EVQLVESGGGLVQPGGSLRLSCAASGFTFTDFYMSWIRQPPGKTPEWLGVIRNKAYVYTTEYNPSVKGRFTISRDNTQNILYLQMNTLRVEDTAIYYCARNWEGFASWGQGTLVTVSS
VL: DVVMTQTPPSLSVAIGQSVSISCKSSQSLVYSDGKTYLHWLLENSGRSPKRLIYRVSNLDSGVPDRFSGTGSQKDFTLKISRVEAQDLGVYYCAQTTHFPWTFGGGTKLELK
B9: C4.1006: anti-ABCC4 antibody raised in rats; VH SEQ ID NO: 19, VL SEQ ID NO: 139 (antibody, V domains shown)
VH: EVQLTESGPGLVQPSQTLSLTCTVSGFSLTSYDVHWVRQPPGKGLEWMGRMQNGGSTDYNSALKSRLSISRDTSKSQVFLKMNSVQTEDTAMYFCVRSFIIRGYWGQGASVTVSS
VL: DIVMTQGALPNPVPSGESASITCQSSKSLLYSDGKTYLNWYLQRPGQSPQLLIYWMSIRASGVSDRFSGSGSGTDFTLKISRVEAEDVGVYYCQQFLEFPYTFGAGTKLEIK

biological target: T1, human ABCC4 (Homo sapiens, UniProt O15439); test: Flow cytometry (FACS) binding to C6 cells stably transfected to express human ABCC4 (different experiment, Table 4); conditions: C6 cells stably transfected to express human ABCC4, FACS; different experiment, Table 4
T1 construct: expressed in transfected cells
T1 sequence (O15439 1-1325): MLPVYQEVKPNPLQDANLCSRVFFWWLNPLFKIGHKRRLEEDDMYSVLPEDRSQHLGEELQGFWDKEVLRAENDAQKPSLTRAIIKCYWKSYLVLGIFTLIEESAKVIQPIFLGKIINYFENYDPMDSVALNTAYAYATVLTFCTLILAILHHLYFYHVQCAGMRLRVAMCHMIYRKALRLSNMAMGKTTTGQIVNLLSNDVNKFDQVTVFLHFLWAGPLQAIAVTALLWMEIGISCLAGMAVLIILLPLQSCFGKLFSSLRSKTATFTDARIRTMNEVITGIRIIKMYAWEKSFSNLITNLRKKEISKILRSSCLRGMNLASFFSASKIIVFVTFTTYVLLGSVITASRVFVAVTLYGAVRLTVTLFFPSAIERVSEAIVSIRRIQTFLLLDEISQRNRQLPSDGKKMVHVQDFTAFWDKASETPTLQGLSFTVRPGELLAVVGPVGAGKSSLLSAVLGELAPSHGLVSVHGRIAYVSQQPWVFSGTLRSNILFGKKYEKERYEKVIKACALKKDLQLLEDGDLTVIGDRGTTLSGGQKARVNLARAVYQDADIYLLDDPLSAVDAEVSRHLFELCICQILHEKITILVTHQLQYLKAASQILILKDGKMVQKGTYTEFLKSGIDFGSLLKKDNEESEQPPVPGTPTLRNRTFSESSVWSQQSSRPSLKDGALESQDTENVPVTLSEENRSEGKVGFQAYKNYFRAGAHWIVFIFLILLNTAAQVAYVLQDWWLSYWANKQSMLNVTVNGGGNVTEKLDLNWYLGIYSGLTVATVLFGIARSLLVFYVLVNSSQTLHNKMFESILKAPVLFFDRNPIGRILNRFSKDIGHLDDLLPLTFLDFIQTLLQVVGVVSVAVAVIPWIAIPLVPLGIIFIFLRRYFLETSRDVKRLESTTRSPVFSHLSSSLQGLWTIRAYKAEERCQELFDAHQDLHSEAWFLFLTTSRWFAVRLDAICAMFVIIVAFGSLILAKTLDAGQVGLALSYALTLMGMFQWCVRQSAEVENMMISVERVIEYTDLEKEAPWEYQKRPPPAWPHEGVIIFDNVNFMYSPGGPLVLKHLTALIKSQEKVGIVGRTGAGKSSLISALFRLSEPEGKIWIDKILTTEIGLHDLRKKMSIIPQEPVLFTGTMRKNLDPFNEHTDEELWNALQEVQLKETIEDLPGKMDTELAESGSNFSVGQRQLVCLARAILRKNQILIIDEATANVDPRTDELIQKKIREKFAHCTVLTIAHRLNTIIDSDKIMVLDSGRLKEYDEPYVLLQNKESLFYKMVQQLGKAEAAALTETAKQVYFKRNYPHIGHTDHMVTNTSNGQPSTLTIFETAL
Procedure: (§1) Binding titration of recombinant antibodies to ABCC4 transfectants was performed by serial dilution of antibodies from about 666 nM. Diluted antibody in flow cytometry buffer was incubated with cells on ice for 30 min. After 2 washes with flow cytometry buffer, bound antibody was detected with PE-labeled F(ab′)2 fragment goat anti-human IgG (Jackson ImmunoResearch) diluted 1:200 in flow cytometry buffer and incubated with cells for 20 min on ice. After 2 washes with flow cytometry buffer fluorescence was measured on an Attune N×T flow cytometer. Data were analyzed with GraphPad Prism 8.0 software to determine EC50's.
(§2) Human embryonic kidney HEK 293T cells and murine C6 (ATCC CCL-107) were transfected with human or cynomolgus ABCC4 cDNA with C-terminal fused FLAG tag in a pMONO-hygro vector with Lipofectamine 3000 (Invitrogen #L3000001). The cells were treated with 0.2 mg/ml and 0.5 mg/ml hygromycin respectively for about 2 weeks while cultivated in DMEM and 10% FBS with 0.2 mg/ml hygromycin and 0.5 mg/ml hygromycin, respectively. The cells were washed with PBS, and stained with […] of anti-FLAG-PE after fixing and permeablization. Clones expressing ABCC4 were single-cell sorted into 200 μl DMEM with 10% FBS using a BD Aria FACS machine and cultivated in 96 well plates using standard techniques in an incubator at 37° C. and 5% CO 2. Two weeks later clones expressing high levels of ABCC4 were screened and amplified.
(§3) Antibody binding to cells was evaluated by flow cytometry. Murine C6 cells stably transfected to express human or cynomolgus ABCC4 were washed once in flow cytometry buffer (PBS+2% FBS+0.02% sodium azide), resuspended at 2×10^6 cells/mL in flow cytometry buffer, and dispensed into 96-well microtiter plates at 0.1 mL/well. Recombinant antibodies were added to cells at 5 ug/mL for initial binding confirmation, or serially diluted from 100 ug/mL in flow cytometry buffer. After incubating cells on ice for 30 min, cells were washed twice with flow cytometry buffer. Bound antibody was detected with PE-labeled F(ab′)2 fragment goat anti-human IgG (Jackson ImmunoResearch) and evaluated on an Attune N×T flow cytometer. EC50 is calculated to be the concentration of antibody that gives half maximal response.
(§4) In a different experiment, using a different C6.cC4 cell line, detecting the binding of anti-ABCC4 antibodies to C6 cells stably transfected to express human ABCC4 measured by FACS and to C6 cells stably transfected to express cynomolgus ABCC4 measured by FACS, the results set forth in Table 4 were obtained. Negative (−)=Rmax (MFI) below background level. Positive (+)=MFI>3× background level.

Molecule	Human ABCC4 binding
B1	+ (Positive (+)=MFI>3× background level)
B2	+ (Positive (+)=MFI>3× background level)
B3	+ (Positive (+)=MFI>3× background level)
B4	+ (Positive (+)=MFI>3× background level)
B5	+ (Positive (+)=MFI>3× background level)
B6	+ (Positive (+)=MFI>3× background level)
B7	+ (Positive (+)=MFI>3× background level)
B8	+ (Positive (+)=MFI>3× background level)
B9	+ (Positive (+)=MFI>3× background level)

system: cynomolgus ABCC4; test: Flow cytometry (FACS) binding to C6 cells stably transfected to express cynomolgus ABCC4 (different experiment, different C6.cC4 cell line, Table 4); design: key to Cynomolgus ABCC4 binding: Negative (−)=Rmax (MFI) below background level; Positive (+)=MFI>3× background level; conditions: different C6.cC4 cell line, C6 cells stably transfected to express cynomolgus ABCC4, FACS; Table 4
Procedure: as §1, §2, §3, §4

Molecule	Cynomolgus ABCC4 binding
B1	−
B2	−
B3	−
B4	−
B5	−
B6	−
B7	−
B8	−
B9	−
